How the values were obtained:
Assay in all cases: cell-based or functional assay
[1] = target: HIV-1 Env of TRO.11 (HIV-1)
[2] = target: HIV-1 Env of PVO.04 (HIV-1)
[3] = target: HIV-1 Env of QH0692.42 (HIV-1)
[4] = target: HIV-1 Env of ZM214.15 (HIV-1)
[5] = target: HIV-1 Env of CAP256.PI (HIV-1)
[6] = target: HIV-1 Env of 191821.E6.1 (HIV-1)
[7] = target: HIV-1 Env of ZM135.10a (HIV-1)
[8] = target: HIV-1 Env of ZM53.12 (HIV-1)
[9] = target: HIV-1 Env of CNE3 (HIV-1)
[10] = target: HIV-1 Env of ZM249.1 (HIV-1)
[11] = target: HIV-1 Env of RHPA.7 (HIV-1)
[12] = target: HIV-1 Env of MB201 (HIV-1)
[13] = target: HIV-1 Env of TRJO.58 (HIV-1)
[14] = target: HIV-1 Env of Q23.17 (HIV-1)
[15] = target: HIV-1 Env of CAP45.G3 (HIV-1)
[16] = target: HIV-1 Env of 6535.3 (HIV-1)
[17] = target: HIV-1 Env of CAP210.E8 (HIV-1)
[18] = target: HIV-1 Env of Q769.d22 (HIV-1)
[19] = target: HIV-1 Env of THRO.18 (HIV-1)
[20] = target: HIV-1 Env of WITO.33 (HIV-1)
[21] = target: HIV-1 Env of ZM197.7 (HIV-1)
[22] = target: HIV-1 Env of 6405.v4.c34 (HIV-1)
[23] = target: HIV-1 Env of ZM233.6 (HIV-1)
[24] = target: HIV-1 Env of BG505.w6m (HIV-1)
[25] = target: HIV-1 Env of CAP244.D3 (HIV-1)
[26] = target: HIV-1 Env of DU172.17 (HIV-1)
[27] = target: HIV-1 Env of ZM109.4 (HIV-1)
[28] = target: HIV-1 Env of REJO.67 (HIV-1)
[29] = target: HIV-1 Env of DU156.12 (HIV-1)
[30] = target: HIV-1 Env of MB539.2B7 (HIV-1)
[31] = target: HIV-1 Env of AC10.29 (HIV-1)
[32] = target: HIV-1 Env of Q168.a2 (HIV-1)
[33] = target: HIV-1 Env of UG037.8 (HIV-1)
[34] = target: HIV-1 Env of 96ZM651.02 (HIV-1)
[35] = target: HIV-1 Env of Q259.d2.17 (HIV-1)
[36] = target: HIV-1 Env of KER2018.11 (HIV-1)
[37] = target: HIV-1 Env of DU422.01 (HIV-1)
[38] = target: HIV-1 Env of 0260.v5.c36 (HIV-1)
[39] = target: HIV-1 Env of 3016.V5.c36 (HIV-1)
[40] = target: HIV-1 Env of KER2008.12 (HIV-1)
[41] = target: HIV-1 Env of Q461.e2 (HIV-1)
[42] = target: HIV-1 Env of Q842.d12 (HIV-1)
[43] = target: HIV-1 Env of CAAN.A2 (HIV-1)
[44] = target: HIV-1 Env of TH976.17 (HIV-1)
[45] = target: HIV-1 Env of SC422.8 (HIV-1)
[46] = target: HIV-1 Env of RW020.2 (HIV-1)
[47] = target: HIV-1 Env of C1080.c3 (HIV-1)
[48] = target: HIV-1 Env of CM244.ec1 (HIV-1)
[49] = target: HIV-1 Env of CAP256.SU (HIV-1)

CAP256-VRC26.13 (antibody)
0.019 µg/mL: IC50 [49]
> 50 µg/mL: IC50 [1] | IC50 [2] | IC50 [3] | IC50 [4] | IC50 [5] | IC50 [6] | IC50 [7] | IC50 [9] | IC50 [10] | IC50 [11] | IC50 [12] | IC50 [13] | IC50 [14] | IC50 [15] | IC50 [16] | IC50 [18] | IC50 [19] | IC50 [20] | IC50 [21] | IC50 [22] | IC50 [23] | IC50 [24] | IC50 [25] | IC50 [26] | IC50 [27] | IC50 [28] | IC50 [29] | IC50 [30] | IC50 [31] | IC50 [32] | IC50 [33] | IC50 [34] | IC50 [35] | IC50 [36] | IC50 [37] | IC50 [38] | IC50 [40] | IC50 [41] | IC50 [42] | IC50 [43] | IC50 [44] | IC50 [45] | IC50 [46] | IC50 [47] | IC50 [48]
0.094 µg/mL: IC50 [17]
3.74 µg/mL: IC50 [39]
0.039 µg/mL: IC50 [8]

CAP256-VRC26.14 (antibody)
0.75 µg/mL: IC50 [24]
> 50 µg/mL: IC50 [1] | IC50 [2] | IC50 [3] | IC50 [4] | IC50 [5] | IC50 [7] | IC50 [9] | IC50 [10] | IC50 [11] | IC50 [12] | IC50 [13] | IC50 [14] | IC50 [15] | IC50 [16] | IC50 [18] | IC50 [19] | IC50 [20] | IC50 [22] | IC50 [25] | IC50 [26] | IC50 [27] | IC50 [28] | IC50 [29] | IC50 [30] | IC50 [31] | IC50 [32] | IC50 [33] | IC50 [34] | IC50 [38] | IC50 [40] | IC50 [41] | IC50 [42] | IC50 [43] | IC50 [44] | IC50 [45] | IC50 [46]
0.03 µg/mL: IC50 [36]
0.004 µg/mL: IC50 [49]
49 µg/mL: IC50 [37]
0.028 µg/mL: IC50 [23]
0.006 µg/mL: IC50 [8]
0.779 µg/mL: IC50 [47]
2.13 µg/mL: IC50 [35]
6.16 µg/mL: IC50 [48]
4.96 µg/mL: IC50 [21]
3.36 µg/mL: IC50 [6]
0.012 µg/mL: IC50 [17] | IC50 [39]

CAP256-VRC26.32 (antibody)
16.8 µg/mL: IC50 (neutralization, TZM-bl) [10]
0.032 µg/mL: IC50 (neutralization, TZM-bl) [36]
0.561 µg/mL: IC50 (neutralization, TZM-bl) [48]
0.097 µg/mL: IC50 (neutralization, TZM-bl) [21]
0.015 µg/mL: IC50 (neutralization, TZM-bl) [23]
0.284 µg/mL: IC50 (neutralization, TZM-bl) [39]
17.8 µg/mL: IC50 (neutralization, TZM-bl) [2]
> 50 µg/mL: IC50 (neutralization, TZM-bl) [1] | IC50 (neutralization, TZM-bl) [3] | IC50 (neutralization, TZM-bl) [4] | IC50 (neutralization, TZM-bl) [5] | IC50 (neutralization, TZM-bl) [7] | IC50 (neutralization, TZM-bl) [9] | IC50 (neutralization, TZM-bl) [11] | IC50 (neutralization, TZM-bl) [12] | IC50 (neutralization, TZM-bl) [13] | IC50 (neutralization, TZM-bl) [14] | IC50 (neutralization, TZM-bl) [15] | IC50 (neutralization, TZM-bl) [16] | IC50 (neutralization, TZM-bl) [18] | IC50 (neutralization, TZM-bl) [19] | IC50 (neutralization, TZM-bl) [20] | IC50 (neutralization, TZM-bl) [22] | IC50 (neutralization, TZM-bl) [24] | IC50 (neutralization, TZM-bl) [25] | IC50 (neutralization, TZM-bl) [26] | IC50 (neutralization, TZM-bl) [27] | IC50 (neutralization, TZM-bl) [28] | IC50 (neutralization, TZM-bl) [29] | IC50 (neutralization, TZM-bl) [30] | IC50 (neutralization, TZM-bl) [31] | IC50 (neutralization, TZM-bl) [32] | IC50 (neutralization, TZM-bl) [33] | IC50 (neutralization, TZM-bl) [34] | IC50 (neutralization, TZM-bl) [35] | IC50 (neutralization, TZM-bl) [37] | IC50 (neutralization, TZM-bl) [38] | IC50 (neutralization, TZM-bl) [40] | IC50 (neutralization, TZM-bl) [41] | IC50 (neutralization, TZM-bl) [42] | IC50 (neutralization, TZM-bl) [43] | IC50 (neutralization, TZM-bl) [44] | IC50 (neutralization, TZM-bl) [45] | IC50 (neutralization, TZM-bl) [46] | IC50 (neutralization, TZM-bl) [47]
0.011 µg/mL: IC50 (neutralization, TZM-bl) [8]
0.008 µg/mL: IC50 (neutralization, TZM-bl) [17]
0.004 µg/mL: IC50 (neutralization, TZM-bl) [49]

CAP256-VRC26.33 (antibody)
0.506 µg/mL: IC50 (neutralization, TZM-bl) [39]
29.5 µg/mL: IC50 (neutralization, TZM-bl) [37]
0.004 µg/mL: IC50 (neutralization, TZM-bl) [23]
0.007 µg/mL: IC50 (neutralization, TZM-bl) [49]
22.5 µg/mL: IC50 (neutralization, TZM-bl) [10]
0.622 µg/mL: IC50 (neutralization, TZM-bl) [15]
0.015 µg/mL: IC50 (neutralization, TZM-bl) [8]
1.73 µg/mL: IC50 (neutralization, TZM-bl) [21]
> 50 µg/mL: IC50 (neutralization, TZM-bl) [1] | IC50 (neutralization, TZM-bl) [2] | IC50 (neutralization, TZM-bl) [3] | IC50 (neutralization, TZM-bl) [4] | IC50 (neutralization, TZM-bl) [5] | IC50 (neutralization, TZM-bl) [7] | IC50 (neutralization, TZM-bl) [9] | IC50 (neutralization, TZM-bl) [11] | IC50 (neutralization, TZM-bl) [12] | IC50 (neutralization, TZM-bl) [13] | IC50 (neutralization, TZM-bl) [14] | IC50 (neutralization, TZM-bl) [16] | IC50 (neutralization, TZM-bl) [18] | IC50 (neutralization, TZM-bl) [19] | IC50 (neutralization, TZM-bl) [20] | IC50 (neutralization, TZM-bl) [22] | IC50 (neutralization, TZM-bl) [24] | IC50 (neutralization, TZM-bl) [25] | IC50 (neutralization, TZM-bl) [26] | IC50 (neutralization, TZM-bl) [27] | IC50 (neutralization, TZM-bl) [28] | IC50 (neutralization, TZM-bl) [29] | IC50 (neutralization, TZM-bl) [30] | IC50 (neutralization, TZM-bl) [31] | IC50 (neutralization, TZM-bl) [32] | IC50 (neutralization, TZM-bl) [33] | IC50 (neutralization, TZM-bl) [34] | IC50 (neutralization, TZM-bl) [35] | IC50 (neutralization, TZM-bl) [38] | IC50 (neutralization, TZM-bl) [40] | IC50 (neutralization, TZM-bl) [41] | IC50 (neutralization, TZM-bl) [42] | IC50 (neutralization, TZM-bl) [43] | IC50 (neutralization, TZM-bl) [44] | IC50 (neutralization, TZM-bl) [45] | IC50 (neutralization, TZM-bl) [46] | IC50 (neutralization, TZM-bl) [47]
0.036 µg/mL: IC50 (neutralization, TZM-bl) [48]
0.037 µg/mL: IC50 (neutralization, TZM-bl) [36]
0.017 µg/mL: IC50 (neutralization, TZM-bl) [17]

Reference: patent US20200199204A1
